The numbers were not newly measured in PMC6176727, which cites them from elsewhere.

What is called pKd is the negative decadic logarithm of the Kd, by convention in mol/L.

For data set [1], the target named is CLV1 ectodomain (Arabidopsis thaliana) (UniProt Q9SYQ8).
Data set [2] has as its target CLV1 (Arabidopsis thaliana) (UniProt Q9SYQ8).

pKd: −log10 of the molar value.

For “CLV3p (13-amino-acid) (from UniProt Q9XF04)”, the pKd in data set [1] is 9.00; in data set [2], 6.55.
